Patent publication US20210139605A1 (AGENCY FOR SCIENCE TECHNOLOGY AND RESEARCH, published 2021)
Numbering of substitutions follows the chain as printed.

B1: PFA4 Fab (Fab, V domains shown)
VH: EVQLVQSGGGVVQPGRSLRLSCAASGFTFSSYAMHWVRQAPGKGLEWVAVISYDGSNKYYADSVKGRFTISRDNSKNTLYLQMNSLRAEDTAVYYCARSRGYYGMDVWGQGTTVTVSS
VL: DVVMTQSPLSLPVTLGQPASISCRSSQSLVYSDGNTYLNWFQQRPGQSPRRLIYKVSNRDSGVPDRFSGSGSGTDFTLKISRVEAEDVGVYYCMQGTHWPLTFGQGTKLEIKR
notes: Printed entries run through CL and CH1 (Fab chains); Label A4 tied to PFA4 by inference
B2: PFB5 Fab (Fab, V domains shown)
VH: EVQLVQSGAEVKKPGSSVKVSCKASGGTFSSYAISWVRQAPGQGLEWMGGIIPIFGTANYAQKFQGRVTITADESTSTAYMELSSLRSEDTAVYYCARGRGSGYPDTWFWFDPWGQGTLVTVSS
VL: not shown
notes: Printed entries run through CL and CH1 (Fab chains); Label B5 tied to PFB5 by inference
B3: PFC3 Fab (Fab, V domains shown)
VH: QVQLVQSGGGLVQPGGSLRLSCAASGFTFSSYAMSWVRQAPGKGLEWVSGINWNGGSTGYADSVKGRFTISRDNSKNTLYLQMNSLRAEDTAVYYCAKGLVPAASMDVWGQGTTVTVSS
VL: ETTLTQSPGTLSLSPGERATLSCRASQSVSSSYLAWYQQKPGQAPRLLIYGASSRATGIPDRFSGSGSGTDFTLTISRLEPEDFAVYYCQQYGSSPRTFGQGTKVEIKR
notes: Printed entries run through CL and CH1 (Fab chains); Label C3 tied to PFC3 by inference
B4: PFE5 Fab (Fab, V domains shown)
VH: B1 VH
VL: DIQMTQSPSSLSASVGDRVTITCRASQGISSWLAWYQQKPGKAPKLLIYAASSLQSGVPSRFSGSGSGTDFTLTISSLQPEDFATYYCQQANSFPPTFGPGTKVDIKR
notes: Printed entries run through CL and CH1 (Fab chains); Label E5 tied to PFE5 by inference
B5: PFD1 Fab (Fab, V domains shown)
VH: B1 VH with A33G, S75A, T78S, Y103S, M105Y, V107N, T113L
VL: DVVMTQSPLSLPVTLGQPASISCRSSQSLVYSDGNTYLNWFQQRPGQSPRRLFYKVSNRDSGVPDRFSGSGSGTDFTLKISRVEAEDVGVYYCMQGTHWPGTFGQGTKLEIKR
notes: Printed entries run through CL and CH1 (Fab chains); Label D1 tied to PFD1 by inference
B6: PFD4 Fab (Fab, V domains shown)
VH: QVQLVQSGGGLVQPGGSLRLSCSASGFTFSSYAMHWVRQAPGKGLEYVSAISSNGGSTYYADSVKGRFTISRDNSKNTLYLQMSSLRAEDTAVYYCARSRGYYGMDVWGQGTTVTVSS
VL: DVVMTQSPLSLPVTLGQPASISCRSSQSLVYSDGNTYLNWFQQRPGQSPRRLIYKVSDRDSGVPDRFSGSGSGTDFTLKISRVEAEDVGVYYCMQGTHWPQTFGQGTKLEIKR
notes: Printed entries run through CL and CH1 (Fab chains); Label D4 tied to PFD4 by inference
B7: PFF2 Fab (Fab, V domains shown)
VH: QMQLVQSGGGVVQPGRSLRLSCAASGFSFKNYGMHWVRQAPGKGLEWVAFISYDGTNKYYADSVKGRFTISRDNSKNTLYLQMNSLRAEDTAVYYCAKHYGDYYYYYGMDVWGQGTTVTVSS
VL: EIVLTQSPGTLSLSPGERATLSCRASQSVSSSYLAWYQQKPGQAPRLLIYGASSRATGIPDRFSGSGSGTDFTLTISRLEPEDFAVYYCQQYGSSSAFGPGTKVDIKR
notes: Printed entries run through CL and CH1 (Fab chains); Label F2 tied to PFF2 by inference
B8: PFG1 Fab (Fab, V domains shown)
VH: EVQLVQSGGGVVQPGRSLRLSCAASGFTFSSYGMHWVRQAPGKGLEWVAVIWYDGSNKYYADSVKGRFTISRDNSKNTLYLQMNSLRAEDTAVYYCATMTTEDYWGQGTLVTVSS
VL: QAVLTQPSSLSASPGASASLTCTLRSGINVGTYRIYWYQQKPGSPPQYLLRYKSDSDKQQGSGVPSRFSGSKDASANAGILLISGLQSEDEADYYCMIWHSSAWVFGGGTKLTVLG
notes: Printed entries run through CL and CH1 (Fab chains); Label G1 tied to PFG1 by inference
B9: PFD2 Fab (Fab, V domains shown)
VH: QVQLQQWGAGLLKPSETLSLTCAVYGGSFSGYYWSWIRQPPGKGLEWIGEINHSGSTNYNPSLKSRVTISVDTSKNQFSLKLSSVTAADTAVYYCARGLPYYYFDYWGQGTLVTVSS
VL: QSVVTQPPSVSGAPGQRVTISCTGRSANIGGFDVQWYRQLPGTAPQLLIYDNSNRPSGVPDRFSGSKSGTSATLAISGLQTGDEADYYCGTWDSYLNIWVFGGGTKLTVLS
notes: Printed entries run through CL and CH1 (Fab chains); Label D2 tied to PFD2 by inference
B10: PFB2 Fab (Fab, V domains shown)
VH: EVQLVQSGAEVKKPGASVKVSCKASGYTFTSYGISWVRQAPGEGLEWMGWISAYNGNTNYAQKLQGRVTMTTDTSTSTAYMELRSLRSDDTAVYYCARDWGSSWSDYWGQGTLVTVSS
VL: ETTLTQSPATLSLSPGERATLSCRASQSVRNNLAWYQHKPGQAPRLLIYYASTRATGIPDRFSGSGSGTDFTLTISRLEPEDFALYYCQHYGSSRTFGQGTKVEIKR
notes: Printed entries run through CL and CH1 (Fab chains); Label B2 tied to PFB2 by inference
B11: PFG4 Fab (Fab, V domains shown)
VH: QVQLQQSGAEVKKPGSSVKVSCKASGGTFSSYAISWVRQAPGQGLEWMGGIIPIFGTANYAQKFQGRVTITADKSTSTAYMELSSLRSEDTAVYYCARGADWNSDYWGQGTLVTVSS
VL: QSVLTQPPSVSKALRQTATLTCTGNNNNVGFAGAAWFLQHQGHPPKLLAYRNNDRPSGISERFSASRSGNTASLTITGLQPEDEADYYCSAWDSSLKVQVFGGGTKLTVLG
notes: Printed entries run through CL and CH1 (Fab chains); Label G4 tied to PFG4 by inference
B12: clone A3 Fab (P1A3, from the phage display Fab library) (Fab, V domains shown)
VH: EVQLVQSGTEVKKPGASVRVSCKSSGYTFTSYYIHWVRQAPGQGLEWMAIINPGNGDTNYAQRFQGRVTMTRDTSTSTVYMELRSLRSDDTAVYFCAREIASYSGSYYDYWGQGTLVTVSS
VL: QAVVTQEPSLSVSPGGTVTLTCGLSSGSVSTGHYASWYQQTPGQAPRTLFYNTNTRSSGVPDRFSGSIVGNKAALTITGAQADDESDYYCVLYVGDGIWVFGGGTKLTVLG
B13: PFA1 Fab (Fab, V domains shown)
VH: EVQLVQSGGGVVQPGRSLRLSCAASGFTFSSYGMHWVRQAPGKGLEWVAVISYDGSNKYYADSVKGRFTISRDNSKNTLFLQMNSLRAEDTAVYYCARDLFAVVGYYYYYGMDVWGQGTTVTVSS
VL: EIVLTQSPFSLPVTPGEPASISCRSSQSLLHSNGFNYLDWYLQKPGQSPQLLIYLGSNRASGVPDRFSGSGSGTDFTLKISRVEAEDVGVYYCMQGLQTPYTFGQGTKLEIKR
notes: Entries are labelled light/heavy chain VD but as printed run through CL and CH1 (Fab chains); Label A1 tied to PFA1 by inference
B14: PFB3 Fab (Fab, V domains shown)
VH: QVQLQESGGGLVQPGGSLRLSCAASGFTFSSYAMSWVRQAPGKGLEWVSAISGSGGSTYYADSVKGRFTISRDNSKNTVYLQMNSLRAEDTAVYYCARTYYDFWSGRVGAFDIWGQGTTVTVSS
VL: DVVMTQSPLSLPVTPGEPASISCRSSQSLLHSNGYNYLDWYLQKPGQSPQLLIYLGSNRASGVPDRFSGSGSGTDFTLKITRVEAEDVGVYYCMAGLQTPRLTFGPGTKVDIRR
notes: Printed entries run through CL and CH1 (Fab chains); Label B3 tied to PFB3 by inference
B15: PFE2 Fab (Fab, V domains shown)
VH: EVQLVQSGGGVVQPGRSLRLSCAASGFTFSSYAMHWVRQAPGKGLEWVAVISYDESNKYYADSVKGRFTISRDNSKNTLYLQMNSLRAEDTAVYYCAREPSGSWSYLYYYYYGMDVWGQGTTVTVSS
VL: DVVMTQSPLSLPVTPGEPASISCRSSQSLLRSDGYNFVDWYLQKAGQSPQLLIHLGSDRASGVPDRFSGSGSGTDFTLRISRVEAEDVGVYYCMQALQTPRTFGQGTKVEIKR
notes: Printed entries run through CL and CH1 (Fab chains); Label E2 tied to PFE2 by inference
B16: clone C5 Fab (P1C5, from the phage display Fab library) (Fab, V domains shown)
VH: QVQLQESGPGLVKPSETLSLTCTVSGGSISSSSYYWGWIRQPPGKGLEWIGSIYYSGSTYYNPSLKSRVTISVDTSKNQFSLKLSSVTAADTAVYYCARYAPDSSGYLVAFDIWGQGTMVTVSS
VL: QTVVTQEPSFSVSPGGTVTLTCGLSSGSVSTGYYPSWYQQTPGQAPRTLIYSTNSRSSGVPDRFSGSILGNKAALTITGAQADDESDYYCVLYMGSGISVFGGGTKLTVLG
B17: PFD3 Fab (Fab, V domains shown)
VH: EVQLVQSGAEVKKPGESLKISCKGSGYSFTSYWIGWVRQMPGKGLEWMGIIYPGDSDTRYSPSFQGQVTISADKSISTAYLQWSSLKASDTAMYYCARLGYGVPLPEYFDLWGRGTLVTVSS
VL: B16 VL with T2A, T5I, G23A, S25T, G32S, A45P, S55L, V91E, L107V
notes: Printed entries run through CL and CH1 (Fab chains); Label D3 tied to PFD3 by inference
B18: clone E4 Fab (P1E4, from the phage display Fab library) (Fab, V domains shown)
VH: QVQLQQWGAGLLKPSETLSLTCAVYGGSFSGYYWSWIRQPPGKGLEWIGEINHSGSTNYNPSLKSRVTISVDTSKNQFSLKLSSVTTADTAVYYCARMGINSGGYLYGMDVWGQGTTVTVSS
VL: B16 VL with G32S, T41I, S52T, S55I, S65G, D83E, V91M, S99W
B19: clone F1 Fab (P1F1, from the phage display Fab library) (Fab, V domains shown)
VH: QVQLVESGPGLVKPSGTLSLTCAVSGGSISSSNWWSWVRQPPGKGLEWIGEIYHSGSTNYNPSLKSRVTISVDTSKNQFSLKLSSVTAADTAVYYCARMGANSGGYLYGMDVWGQGTTVTVSS
VL: B16 VL with G32S, S55T, S99W
B20: PFA5 Fab (Fab, V domains shown)
VH: QVQLVQSGAEVKKPGASVKVSCKASGYTFTSYAMHWVRQAPGQRLEWMGWINAGNGNTKYSQKFQGRVTITRDTSASTAYMELSSLRSEDTAVYYCARGGYLVGYWGQGTLVTVSS
VL: not shown
notes: Printed entries run through CL and CH1 (Fab chains); Label A5 tied to PFA5 by inference
B21: PFA2 Fab (Fab, V domains shown)
VH: QVQLQQSGPGLVKPSQTLSLTCAISGESVSSAAAAWNWIRQSPSRGLEWLGRTYYRSKWYSEYAVSVKSRITINGDTSKNQVSLHLNAVTPEDTAIYYCVRGSIFDVWGQGTMVTVSS
VL: EIVLTQSPLSLPVTPGEPASISCRSSQSLLHSDGNKYLDWYLQKPGQSPQLLIYLGSNRASGVPERFSGSGSGTDFTLKISRVEAEDVGVYYCMLGTHWPPMYIFGQGTKLEIKR
notes: Printed entries run through CL and CH1 (Fab chains); Label A2 tied to PFA2 by inference
B22: PFG2 Fab (Fab, V domains shown)
VH: EVQLVQSGGGLVQPGGSLRLSCAASGFTFSSYAMSWVRQAPGKGLEWVSSISSSSSYIYYADSVKGRFTISRDNAKNSLYLQMNSLRAEDTAVYYCARDGSAWSRPYWGQGTLVTVSS
VL: EIVLTQSPATLSLSPGERATLSCRASQSVSSYLAWYQQKPGQAPRLLIYDASNRATGIPARFSGSGSGTDFTLTISSLEPEDFAVYYCQQRSNWPLTFGGGTKVEIKR
notes: Printed entries run through CL and CH1 (Fab chains); Label G2 tied to PFG2 by inference
B23: PFF3 Fab (Fab, V domains shown)
VH: QVQLVQSGGGLVQPGGSLRLSCSASGFTFSSYAIHWVRQAPGKGLEYVSAISSNGGSTYYADSVKGRFTISRDNSKNTLYLQMNSLRAEDTAVYYCARVYGYGLHYYGMDVWGQGTTVTVSS
VL: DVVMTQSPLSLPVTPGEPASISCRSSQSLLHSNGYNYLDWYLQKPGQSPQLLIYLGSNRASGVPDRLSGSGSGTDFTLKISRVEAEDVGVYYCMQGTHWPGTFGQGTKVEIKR
notes: Printed entries run through CL and CH1 (Fab chains); Label F3 tied to PFF3 by inference
B24: PFB1 Fab (Fab, V domains shown)
VH: QVQLQESGGGLVQPGGSLRLSCAASGFTFSSFAMNWVRQAPGKGLEWVSTIGGSGDSTFYADPVKGRFTVSRDNSKNTLYLQMNSLRAEDTAVYYCAQAYGSGGHYFFAYWGQGTLVTVSS
VL: DVVMTQSPLSLPVTPGEPASISCRSSQSLLHSNGNTYLDWYLQKPGQSPQVLIYSGSNRASGVPDRFSGSGSGTDFTLKISRVEAEDVGVYYCMQGTHWPPTFGQGTKVEIKR
notes: Printed entries run through CL and CH1 (Fab chains); Label B1 tied to PFB1 by inference

What follows are binders tested against T1, human HER-2 protein (soluble / recombinant, used in SPR) (human, UniProt P04626 23-652) (assay: SPR, human HER2 immobilised, Fab flown, 1:1 Langmuir model).
T1 construct: also called immobilized HER2 protein; recombinant HER-2
Description: Rate constants of association, dissociation (kₐ, kd) and the equilibrium dissociation constants (KD) were determined for anti-HER2 Fab molecules. Human HER2 protein (50 μg/mL) was immobilised on the SPR sensor chip and was exposed to five different concentrations of each Fab in 2- or 3-fold dilutions over the flow cells. 1:1 Langmuir model was used to derive the constants.

Binder	Kd	koff	kon
B1	20.5 nM	0.042 s⁻¹	2.03e+06 M⁻¹ s⁻¹
B2	112 nM	0.02 s⁻¹	176000 M⁻¹ s⁻¹
B3	15.3 nM	0.063 s⁻¹	4.11e+06 M⁻¹ s⁻¹

These binders were tested against T1, human HER-2 protein (soluble / …) (assay: SPR, immobilized HER2 protein).

Binder	koff
B1	0.0196 s⁻¹
B4	0.00152 s⁻¹
B5	0.0714 s⁻¹
B6	0.0342 s⁻¹
B2	0.017 s⁻¹
B7	0.0047 s⁻¹
B8	0.000324 s⁻¹
B9	0.00486 s⁻¹
B3	0.0528 s⁻¹
B10	0.000177 s⁻¹
B11	0.00063 s⁻¹
B12	0.00416 s⁻¹
B13	0.00415 s⁻¹
B14	0.0102 s⁻¹
B15	0.0187 s⁻¹
B16	0.00448 s⁻¹
B17	0.0272 s⁻¹
B18	0.00181 s⁻¹
B19	0.00502 s⁻¹
B20	0.00326 s⁻¹
B21	0.00218 s⁻¹
B22	0.000499 s⁻¹
B23	0.00324 s⁻¹
B24	0.00565 s⁻¹
